Assay results taken from the supplement of paper PMC6757056.
± gives the standard deviation of the averaged measurements.

B1: library; a variant is named by its letters at N, in order (parent)
chain: GCUGUCACCGGUGUAUUACCCUAGUGGUCGACCGGUCUGAUGAGUCUNNNNNNAGACGAAACAGC

Assays:
[1] = variants of: B1; test: FACS-Seq fitted mean relative fluorescence mCherry/BFP without ligand (log10 relative fluorescence); ligand: hypoxanthine (xanthine aptamer); higher = higher reporter protein expression; settings: HEK293T, ligand present: no
Description: (§1)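 Hammerhead (sTRSV) ribozyme switch libraries with a ligand aptamer grafted on stem I and a randomized N4-6 loop II, cloned into the 3' UTR of mCherry and transiently transfected into HEK293T cells; RNA-Seq 72 h post transfection with ligand added 1 h before transfection; RNA read count / plasmid DNA read count normalized to the non-cleaving sTRSVctl (x100), log10; sequences with >100 DNA reads. FACS-Seq: lentiviral library sorted into 6 bins after 48 h ligand, log-normal fit mean of mCherry/BFP scaled to controls. Printed sequences are partial switch sequences.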

[2] = variants of: B1; test: normalized RNA/DNA level with ligand (relative to sTRSVctl = 100) (log10 (% of sTRSVctl)); ligand: hypoxanthine (xanthine aptamer); higher = less ribozyme self-cleavage, higher mRNA level; settings: ligand concentration (+) RNA-Seq: 5 mM, HEK293T, reporter: mCherry (pCS4076), ligand present: yes
Description: as §1

[3] = variants of: B1; test: normalized RNA/DNA level without ligand (relative to sTRSVctl = 100) (log10 (% of sTRSVctl)); ligand: hypoxanthine (xanthine aptamer); higher = less ribozyme self-cleavage, higher mRNA level; settings: HEK293T, reporter: mCherry (pCS4076), ligand present: no
Description: as §1

[4] = variants of: B1; test: FACS-Seq fitted mean relative fluorescence mCherry/BFP with ligand (log10 relative fluorescence); ligand: hypoxanthine (xanthine aptamer); ligand concentration (+) FACS-Seq: 5 mM; higher = higher reporter protein expression; settings: HEK293T, ligand present: yes
Description: as §1

Variant	FACS-Seq fitted mean (log10) [1]	normalized RNA/DNA level with ligand (log10) [2]	normalized RNA/DNA level without ligand (log10) [3]	FACS-Seq fitted mean (log10) [4]
GCUGUCACCGGUGUAUUACCCUAGUGGUCGACCGGUCUGAUGAGUCUCAAGAAAGACGAAACAGC [CAAGAA]	0.513 ± 0.021	1.89 ± 0.03	1.7 ± 0.044	0.45 ± 0.091
GCUGUCACCGGUGUAUUACCCUAGUGGUCGACCGGUCUGAUGAGUCUCAAGAGAGACGAAACAGC [CAAGAG]	0.342 ± 0.095	1.86 ± 0.036	1.57 ± 0.03	0.473 ± 0.018
GCUGUCACCGGUGUAUUACCCUAGUGGUCGACCGGUCUGAUGAGUCUAAACGUAGACGAAACAGC [AAACGU]	0.362 ± 0.036	1.877 ± 0.0019	1.63 ± 0.043	0.519 ± 0.03
GCUGUCACCGGUGUAUUACCCUAGUGGUCGACCGGUCUGAUGAGUCUUAAGACAGACGAAACAGC [UAAGAC]	0.419 ± 0.024	1.87 ± 0.05	1.82 ± 0.035	0.507 ± 0.024
GCUGUCACCGGUGUAUUACCCUAGUGGUCGACCGGUCUGAUGAGUCUUAAGAAAGACGAAACAGC [UAAGAA]	0.349 ± 0.3	1.91 ± 0.025	1.68 ± 0.011	0.395 ± 0.051
GCUGUCACCGGUGUAUUACCCUAGUGGUCGACCGGUCUGAUGAGUCUUAAGAGAGACGAAACAGC [UAAGAG]	0.312 ± 0.071	1.833 ± 0.013	1.528 ± 0.011	0.422 ± 0.032
GCUGUCACCGGUGUAUUACCCUAGUGGUCGACCGGUCUGAUGAGUCUGAACUAAGACGAAACAGC [GAACUA]	0.557 ± 0.024	1.873 ± 0.012	1.815 ± 0.0032	0.182 ± 0.072
GCUGUCACCGGUGUAUUACCCUAGUGGUCGACCGGUCUGAUGAGUCUGAACUUAGACGAAACAGC [GAACUU]	0.731 ± 0.013	1.91 ± 0.11	1.8654 ± 0.0014	0.616 ± 0.025
GCUGUCACCGGUGUAUUACCCUAGUGGUCGACCGGUCUGAUGAGUCUAAACUUAGACGAAACAGC [AAACUU]	0.777 ± 0.048	1.92 ± 0.011	1.856 ± 0.0063	0.674 ± 0.075
GCUGUCACCGGUGUAUUACCCUAGUGGUCGACCGGUCUGAUGAGUCUAAACUGAGACGAAACAGC [AAACUG]	0.227 ± 0.039	1.822 ± 0.0094	1.43 ± 0.051	0.46 ± 0.021
GCUGUCACCGGUGUAUUACCCUAGUGGUCGACCGGUCUGAUGAGUCUUAACGUAGACGAAACAGC [UAACGU]	0.145 ± 0.021	1.914 ± 0.01	1.61 ± 0.038	0.365 ± 0.051
GCUGUCACCGGUGUAUUACCCUAGUGGUCGACCGGUCUGAUGAGUCUUAACGGAGACGAAACAGC [UAACGG]	0.07847 ± 0.00013	1.82 ± 0.083	1.376 ± 0.0076	0.473 ± 0.081
GCUGUCACCGGUGUAUUACCCUAGUGGUCGACCGGUCUGAUGAGUCUUAACUGAGACGAAACAGC [UAACUG]	0.142 ± 0.042	1.896 ± 0.018	1.64 ± 0.017	0.31 ± 0.084
GCUGUCACCGGUGUAUUACCCUAGUGGUCGACCGGUCUGAUGAGUCUUAACUAAGACGAAACAGC [UAACUA]	0.0691 ± 0.014	1.921 ± 0.0071	1.879 ± 0.0092	-0.0104 ± 0.0014
GCUGUCACCGGUGUAUUACCCUAGUGGUCGACCGGUCUGAUGAGUCUCAACUAAGACGAAACAGC [CAACUA]	0.494 ± 0.084	1.93 ± 0.029	1.709 ± 0.011	0.695 ± 0.016
GCUGUCACCGGUGUAUUACCCUAGUGGUCGACCGGUCUGAUGAGUCUCAACUUAGACGAAACAGC [CAACUU]	0.257 ± 0.007	1.95 ± 0.043	1.873 ± 0.0032	0.377 ± 0.026
GCUGUCACCGGUGUAUUACCCUAGUGGUCGACCGGUCUGAUGAGUCUGAAGACAGACGAAACAGC [GAAGAC]	0.249 ± 0.014	1.921 ± 0.0023	1.63 ± 0.026	0.505 ± 0.069
GCUGUCACCGGUGUAUUACCCUAGUGGUCGACCGGUCUGAUGAGUCUGAAGAAAGACGAAACAGC [GAAGAA]	0.4206 ± 0.0035	1.9256 ± 0.00044	1.677 ± 0.013	0.5245 ± 0.001
GCUGUCACCGGUGUAUUACCCUAGUGGUCGACCGGUCUGAUGAGUCUGAAGAGAGACGAAACAGC [GAAGAG]	-0.121 ± 0.02	1.79 ± 0.022	1.27 ± 0.032	0.521 ± 0.037
GCUGUCACCGGUGUAUUACCCUAGUGGUCGACCGGUCUGAUGAGUCUAAAGAGAGACGAAACAGC [AAAGAG]	-0.112 ± 0.064	1.8 ± 0.025	1.32 ± 0.042	0.451 ± 0.045
GCUGUCACCGGUGUAUUACCCUAGUGGUCGACCGGUCUGAUGAGUCUAAAGAAAGACGAAACAGC [AAAGAA]	0.0245 ± 0.07	1.9 ± 0.028	1.715 ± 0.0039	0.207 ± 0.017
